Two substances from article doi:10.1101/2021.01.28.428652 can be followed below.

As usually defined, the Kd is the constant that tells how readily two partners part at equilibrium.

Assay [1] concerns the target MIK2^ECD-6xHIS, extracellular leucine-rich repeat domain of MALE DISCOVERER 1-… RECEPTOR-LIKE KINASE 2 (Arabidopsis thaliana) (UniProt Q8VZG8). Nature of the assay: ITC. For orientation: In ITC the heat of successive injections is recorded.
The target is the same in assay [2]. Nature of the assay: SPR. (In general: SPR reads the build-up and loss of mass on a sensor chip optically.)

Chain of UniProt Q8VZG8 (Q8VZG8 44-707): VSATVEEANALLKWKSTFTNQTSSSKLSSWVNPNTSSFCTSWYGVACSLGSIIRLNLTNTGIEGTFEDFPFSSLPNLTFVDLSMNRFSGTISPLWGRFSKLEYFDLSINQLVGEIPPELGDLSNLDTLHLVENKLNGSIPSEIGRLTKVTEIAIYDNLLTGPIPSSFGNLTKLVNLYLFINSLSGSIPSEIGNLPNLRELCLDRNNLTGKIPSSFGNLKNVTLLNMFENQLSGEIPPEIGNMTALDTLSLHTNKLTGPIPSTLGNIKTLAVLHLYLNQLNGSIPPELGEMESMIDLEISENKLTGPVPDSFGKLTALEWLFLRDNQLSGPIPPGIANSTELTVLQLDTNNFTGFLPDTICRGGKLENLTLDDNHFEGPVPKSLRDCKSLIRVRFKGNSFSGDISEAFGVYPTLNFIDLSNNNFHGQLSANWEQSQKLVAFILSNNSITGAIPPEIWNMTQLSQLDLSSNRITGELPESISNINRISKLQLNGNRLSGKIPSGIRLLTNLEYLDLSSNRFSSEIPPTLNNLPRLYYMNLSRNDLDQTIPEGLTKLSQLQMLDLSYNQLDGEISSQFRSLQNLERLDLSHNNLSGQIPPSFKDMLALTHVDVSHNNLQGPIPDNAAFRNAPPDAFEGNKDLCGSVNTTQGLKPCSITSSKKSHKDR

In assay [1], “SCOOP12 peptide (SERINE-RICH ENDOGENOUS PEPTIDE 12)” displayed a Kd of 3.18 µM and a stoichiometry N (ligand molecule per receptor molecule) of 1. The Kd in assay [2] came to 1.78 µM.
In the case of SCOOP12^SS/AA peptide, in assay [2], the Kd stood at 3480 µM. This counts as millimolar.
